According to the supplement of paper PMC9170038:

Tested on: MS2 coat protein
Assay: apparent KD of MS2 coat protein; designed switch direction (-1 OFF switch, 1 ON switch): -1; higher = weaker reporter binding
Outline: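 Transcription of designed RNA switches on Illumina chips was done by stalled E. coli RNA polymerase. SNAP-549-labelled MS2 coat protein was then titrated in doubling steps from 0.7 or 1.5 nM to 3 µM, with steps of 0.8–1.5 h at the lowest and 10–20 min at the highest concentration. The per-design median over clusters of curve-fitted normalised fluorescence is reported as apparent KD.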

[1] = Eterna round: R95, input ligand: microRNA oligo, concentration not stated
[2] = input ligand: microRNA oligo, concentration not stated
[3] = Eterna round: R95, input ligand: FMN 200 uM
[4] = Eterna round: R95, input ligand: none

Row | Sequence | apparent KD of MS2 coat protein [1] [nM] | apparent KD of MS2 coat protein (input ligand: FMN 200 uM) [nM] | apparent KD of MS2 coat protein (input ligand: none) [nM] | also measured
1 | GGGUGUGAAGGAUAUACAUGAGGAUCACCCAUGUGAGAGGAGAAUGUUGAGGAGGUUGGUAGAAGGUCAGGAGG [JR_Exclusion3_Sub010] (puzzle: Exclusion 3) | 79.1 | – | – | –
2 | GUAUAUAGUGUGAGGAUAUGCUGGUCCUUGGAUCAGCAGAAGGCACAUGAGGAUCACCCAUGUAGUUUAUUUUG [Mat - Exclusion 4 - JL Mod - D7] (puzzle: Brourd's mod of Exclusion 4) | 16.2 | – | – | –
3 | ACGUUUUUUGAGGAUAUGCGACGUUCCUUCGUCGUAGAAGGCGAUACAUGAGGAUCACCCAUGUUUAUGGGCAU [LRO-Ex6-17] (puzzle: Exclusion 6) | 86.4 | – | – | –
4 | GGACAGGGAGGAUAUACUUGAGGAUCACCCAAGUCGUAUAAUCGAUGAACACGCCGAAGUAGAAGGCCCAAAAG [Esorgebi] (Eterna round: R97, puzzle: Exclusion 3) | – | 403 | 131 | –
5 | ACAUGAGGAUCACCCAUGUCUGGCUGGUCCGUCUCGGCUGUCGAGGAUAUGGCUCGGUGUCCGCGCUAGAAGGCGGGAGCUGGA [Aenatbe mod 78] (Eterna round: R96, puzzle: Exclusion NG 3) | – | 193 | 68.2 | apparent KD of MS2 coat protein [2]: 43 nM
6 | CCACGUCUGCAGGAUAUCAGAUUGUAAGAUCGAUGAGAAGGGCAGACAUGAGGAUCACCCAUGUCCGCCACCAA [EX6 C.10] (Eterna round: R97, puzzle: Exclusion 6) | – | 20.6 | 20.6 | –
7 | UAGAAUCGAGGAUAUACAUGAGGAUCACCCAUGUGUUGCCGCAUGAUAUGAUCGUCAGGUAGAAGGCGAUUAUA [Exclusion 3 - Mod of Jieux's Gilly Gone Silly 23 v.6] (puzzle: Exclusion 3) | 83.4 | – | – | apparent KD of MS2 coat protein [3]: 37.6 nM; apparent KD of MS2 coat protein [4]: 82.9 nM
8 | UUCACAUGGACAUAAGAUCACAUGAGGAUCACCCAUGUGAAUAACAAGCUUUUUGCUCGUCUUAUGUCCAAUAAUAA [Stov1/14-A1] (Eterna round: R97, puzzle: Sensor, turn-off variant 1) | – | 14.1 | 12.2 | –
9 | GUGGCACAUGAGGAUCACCCAUGUCAGGAUAUCGCGUGUUUUUUUUCGGCCGCGCGCGCGAGAAGGGACGUCUU (puzzle: Exclusion 1) | 22.8 | – | – | –
10 | UAUUAGCAAGCGAGAUCCCACAUGAGGAUCACCCAUGUAACAUCCAGAAUUACUGGGUGCAAAGCUCGUCUUAUAUA [Winner reversed engineered 3] (Eterna round: R97, puzzle: Sensor, turn-off variant 1) | – | 434 | 496 | –
11 | CACCCUGAUGUCAGGAUAUGCGCGUCGCGCCUCGAGCAGAAGGGACAUGAGGAUCACCCAUGUUGUCUCUUGGG [Orisvedixe] (puzzle: Brourd's mod of Exclusion 4) | 44.5 | – | – | –
12 | GGUGCGUCUGUGAGGAUAUGCUGGUCCUUGGAUCAGCAGAAGGCACAUGAGGAUCACCCAUGUGGUGUCGUACC [salish99_Bmod_Ex4_028] (puzzle: Brourd's mod of Exclusion 4) | 143 | – | – | –
13 | GAAAACGUAGGAUAUUAAUACUCAGACAUGAGGAUCACCCAUGUUUGGUGGGUCGGAGAAUGAGAAGGGCGAUGAA [EX5 #14] (Eterna round: R97, puzzle: Exclusion 5) | – | 82.3 | 89.7 | –
14 | CUUUUGUGAGGAUAUUAGUAGUAAAUAAAUAAAAUUACUACUUAGAAGGCACAUGAGGAUCACCCAUGUUCCUC [salish99_ex4_r3_043] (puzzle: Exclusion 4) | 28.3 | – | – | –
15 | ACAUGAGGAUCACCCAUGUACAGGGUUUAGCCUCAUUGUUUGAAGGAUAUACUCAGUUAGUUGUUGUAGAAGGUCACCUUUUAU [JR_ExcNG3_Sub003] (Eterna round: R96, puzzle: Exclusion NG 3) | – | 3450 | 1360 | apparent KD of MS2 coat protein [2]: 1730 nM
16 | AAUAGGACAGGAUAUCCGGAGUCGAACAUGAGGAUCACCCAUGUGAUGAGGAUGUUCGCUGGAGAAGGGUCUGGCU [Atisdiis] (puzzle: Exclusion 5) | 124 | – | – | apparent KD of MS2 coat protein [3]: 83.9 nM; apparent KD of MS2 coat protein [4]: 176 nM
17 | UAUUAGCAAGUGAGAUCCCACAUGAGGAUCACCCAUGUGCUCGUCUUAUAACGUACUGUGAGGAAACUCACGGUACG [Sensor-V1 #83] (Eterna round: R97, puzzle: Sensor, turn-off variant 1) | – | 47.6 | 51.2 | –
18 | AAUUUCGCGGCCCGAUGACUGCGUACUGACAGUGAGCUCACAUGAGGAUCACCCAUGUUUUUUGCUCGUAAAUCAGA [Quarat] (Eterna round: R96, puzzle: Sensor v2, turn-off variant 2) | – | 13.6 | 16.1 | apparent KD of MS2 coat protein [2]: 12.3 nM

Row | Sequence | apparent KD of MS2 coat protein [1] [nM] | apparent KD of MS2 coat protein (input ligand: FMN 200 uM) [nM] | apparent KD of MS2 coat protein (input ligand: none) [nM] | also measured
19 | ACGCGACAUGAGGAUCACCCAUGUGAGGAUAUGGCCUGUUUGUCGUGUGCUGGCUCUGUCAGAAGGCGCGUUGG [salish99_ex1_r4_042] (Eterna round: R97, puzzle: Exclusion 1) | – | 255 | 128 | –
20 | UAUUAGCAAGCAUGAUCCCACAUGAGGAUCACCCAUGUGCUCGUCUUAUAAGGUACUGUGACGAAAGUCACGGUACC [Sensor 3, v1 - 97] (puzzle: Sensor v3, turn-off variant 1) | 89.4 | – | – | apparent KD of MS2 coat protein [3]: 195 nM; apparent KD of MS2 coat protein [4]: 218 nM
21 | UACAUGAGGAUCACCCAUGUUUUGUCGUGUUUGGUACCCGUUUAGGAUAUCGUGUUAUUGUAUCGCGAGAAGGAGAGUAUCUUU [Excl-NG3-LRO09] (Eterna round: R96, puzzle: Exclusion NG 3) | – | 30.9 | 27 | apparent KD of MS2 coat protein [2]: 27.1 nM
22 | UUAUAGUGAGGAUAUAUAUGCAGUAAACCUUUAAAUUUAUAACUUGAGGAUCACCCAAGUAGAAGGCGCGUUAU [JR_Ex2_Sub054] (Eterna round: R97, puzzle: Exclusion 2) | – | 15.3 | 16.9 | –
23 | GGAAAGGUAGGAUAUACGAAGAAAAAGGGUAGAAGAAGAACACAUGAGGAUCACCCAUGUAGAAGGACCAAAGC [Mat - Exclusion 2 - Mod of my Tesla design - D15] (puzzle: Exclusion 2) | 20.9 | – | – | apparent KD of MS2 coat protein [3]: 56.5 nM; apparent KD of MS2 coat protein [4]: 23.9 nM
24 | UCCGCGCGCUUGCGCGCGGACAUGAGGAUCACCCAUGUCGGGCUUUUUGCUCGUUUUGUUGCGCGCGUUCGCGCGCG [Revision to Olbi_3 by Sunset] (Eterna round: R97, puzzle: Sensor, turn-off variant 1) | – | 89.1 | 101 | –
25 | GGAAGGCGAGGAUAUGCAAUAAAGCAGGCGAAGGCCUGCAAACAUGAGGAUCACCCAUGUAGAAGGCGCGAGAA [AK-MS2ROC-r4-exclusion2-6.6] (Eterna round: R97, puzzle: Exclusion 2) | – | 17.2 | 26.1 | –
26 | UCGGCGCGAGGAUAUGCGGUUUGUGCUUCGGGCCCUCGCGUACAUGAGGAUCACCCAUGUAGAAGGCGCGCCGC [Apr-15 SS2-45] (puzzle: Exclusion 2) | 75.2 | – | – | –
27 | AUCGUGCAGCAAAGCUGUACGAGUACAUGAGGAUCACCCAUGUAGGAUAUGGUACGCUUUGCGUGCUAGAAGGAUAUGUGUAGG [Mat - Exclusion NG 3 - Mod of JL - D83] (Eterna round: R96, puzzle: Exclusion NG 3) | – | 35.7 | 35.7 | apparent KD of MS2 coat protein [2]: 31 nM
28 | CUUUUGUGAGGAUAUUAGUAGUAAGUAAAUAAAAUUAUUACUAAGAAGGCACAUGAGGAUCACCCAUGUUCCUC [EX4 #81] (Eterna round: R97, puzzle: Exclusion 4) | – | 108 | 58 | –
29 | GGUUGGCGAGGAUAUACAUGAGGAUCACCCAUGUGAGAGAGAAAAGUGAGGAAGAAAAGUAGAAGGCGCUGACG [salish99_ex3_r3_003] (puzzle: Exclusion 3) | 48 | – | – | apparent KD of MS2 coat protein [3]: 97.3 nM; apparent KD of MS2 coat protein [4]: 36.1 nM
30 | UAUUUAGCAAGCAGAUCCCACAUGAGGAUCACCCAUGUUCUCUGAAAGUACAGAAUUACUGUACUUGCUCGUCUUAU [Winner reversed engineered 34] (Eterna round: R97, puzzle: Sensor, turn-off variant 1) | – | 210 | 237 | –
31 | UACUAUAAGGAGGAUAUCGUAUCGGAGACGAUACGAGAAGGCUUAACAUGAGGAUCACCCAUGUUCUUCAAUAU [Mat - Exclusion 6 - Eli Mod - D91] (puzzle: Exclusion 6) | 14.8 | – | – | –
32 | ACAUGAGGAUCACCCAUGUCCGGCUGGUCCGUCUCGGCUGUCGAGGAUAUGGCUCGGUGUCCGCGCUAGAAGGUGGGAGCCGGU [Aenatbe mod 74] (Eterna round: R96, puzzle: Exclusion NG 3) | – | 100 | 103 | apparent KD of MS2 coat protein [2]: 54 nM
33 | UUCUACAAGCUGAGAUCCUACAUGAGGAUCACCCAUGUGGUCCGGAACAUUCUGUCACCGGAUCUUGCUCGUCUUGU [salish99_S_TOV1_R5_104] (Eterna round: R97, puzzle: Sensor, turn-off variant 1) | – | 41.9 | 48.4 | –
34 | AUAUCACAUGAGGAUCACCCAUGUCAGGAUAUGAUACUAUGUACUUCGGUACAUAGUAUCAGAAGGGAUAUGAA [Ex1-3: 66] (puzzle: Exclusion 1) | 45.4 | – | – | –
35 | CAUGAUCUUCGGAUCAUGUACAUGAGGAUCACCCAUGUGACGAGUUUAUGGGUGAACAAGCUUUUUGCUCGUCUUAU [Sensor v3 - Turn-off variant 1 - 6] (puzzle: Sensor v3, turn-off variant 1) | 11.2 | – | – | apparent KD of MS2 coat protein [3]: 60 nM; apparent KD of MS2 coat protein [4]: 68.9 nM
